Source: patent publication US20230109208A1 (priority 2020, published 2023)
Values joined by “and” are separate entries in the source; they are usually repeats but may differ in a detail not shown here. Equal entries are not always repeated. Where two headings read alike, the source gives them in different places.

Experiments:
[1] = test system: COVID-19 (SARS-CoV-2); details: cited from earlier work; for Mean Days to Discharge (**median): Lopinavir/Ritonavir cohort
[2] = target: human GM-CSF (Homo sapiens, UniProt P04141); experiment: Binding of lenzilumab to GM-CSF
Sequence of human GM-CSF (P04141 18-144): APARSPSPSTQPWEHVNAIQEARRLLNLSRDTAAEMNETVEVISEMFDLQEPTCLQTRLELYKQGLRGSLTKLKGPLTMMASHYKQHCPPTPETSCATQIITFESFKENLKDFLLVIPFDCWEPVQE

[3] = test system: severe COVID-19 pneumonia (SARS-CoV-2); details: for Incidence of IMV / Incidence of IMV and/or death / Incidence of death / Incidence of clinical improvement: n = 12
[4] = test system: COVID-19 associated chronic ARDS (SARS-CoV-2); type: in vivo, human; details: one patient
Experimental: Hospitalized subject with confirmed COVID-19 pneumonia and established risk factors for poor outcomes was treated in the ICU for 12 weeks using standard supportive care for chronic acute respiratory distress syndrome (ARDS). […] Patient characteristics, clinical and laboratory outcomes, and adverse events were recorded through duration of hospitalization.
Over the course of their ICU stay, the patient developed acute respiratory distress syndrome (ARDS).

[5] = Four completed clinical trials of lenzilumab (healthy volunteers, asthma, rheumatoid arthritis, CMML); type: in vivo, human; details: 113 individuals in 4 completed trials
[6] = test system: severe and critical COVID-19 pneumonia (SARS-CoV-2); details: for deaths / mortality: data cutoff May 1, 2020; for ALT after lenzilumab / AST after lenzilumab: individual patients: peak (patient 4) or at discharge (patients 5, 8)
[7] = one patient, pretreatment vs 48 hours post-lenzilumab
[8] = 12 patients (same cohort in Examples 8 and 10)
[9] = individual patient narratives, listed as lenzilumab
[10] = patient 5 at discharge, unit not given

Molecule: Tocilizumab: anti-IL6 receptor monoclonal antibody; IL-6 antagonist
- Mean Days to Discharge ([1]; Tocilizumab cohort): 13.5 days

Molecule: lopinavir and ritonavir [Lopinavir/Ritonavir]
- Mean Days to Discharge (**median) [1]: 13** days
- Mean Days to Discharge (**median) ([1]; listed as Lopinavir-Ritonavir): 13 days

B1: Lenzilumab: Humaneered recombinant monoclonal antibody, derived from mouse antibody LMM102, targeting and neutralizing human GM-CSF (antibody, chains of the INN, looked up, V domains shown)
VH: QVQLVQSGAEVKKPGASVKVSCKASGYSFTNYYIHWVRQAPGQRLEWMGWINAGNGNTKYSQKFQGRVTITRDTSASTAYMELSSLRSEDTAVYYCVRRQRFPYYFDYWGQGTLVTVSS
VL: EIVLTQSPATLSVSPGERATLSCRASQSVGTNVAWYQQKPGQAPRVLIYSTSSRATGITDRFSGSGSGTDFTLTISRLEPEDFAVYYCQQFNKSPLTFGGGTKVEIK
- binding affinity [2]: picomolar range
- patients free of ARDS (SpO2/FiO2 of 315 or higher) by end of observation ([3]; 11 patients, P=0.43): 92%
- mean SpO2/FiO2 over time post-treatment vs untreated ([3]; P<0.001): statistically significant difference
- CRP reduction (mean) ([3]; after 4 days, control −0.95, P .01): 135.8
- IL-6 concentration on day 4 ([3]; baseline 28.6 pg/mL, P=0.02): 8.52 pg/mL
- mean CRP after treatment ([3]; baseline 172.2 mg/L, 4 days post-treatment, P=0.04): 36.4 mg/L
- mean absolute neutrophil count day 4 ([3]; baseline 5.1, P=0.27): 4.8e+09 L⁻¹
- mean hemoglobin day 4 ([3]; baseline 12.9, P=0.89): 11.4 g/dL
- IL-6 reduction ([3]; baseline vs day 4): 20.1
- ALC increase ([3]; control 0.03, P .04): 0.46 × 10*9/L
- Mean temperature reduction ([3]; control 0.459, P .02): 1.075
- PLT increase (mean platelet count from baseline) ([3]; control 63.2, P .61): 52.5
- Ventilator-free survival vs untreated group ([3]; log-rank x^2=3.67, P=0.06): favored
- Incidence of IMV [3]: (8%)
- Incidence of IMV and/or death [3]: (8%)
- Incidence of death [3]: (8%)
- Incidence of IMV and/or death ([3]; P .07): 1 patients
- Incidence of IMV ([3]; P .10): 1 patients
- Incidence of death ([3]; P .43): 1 patients
- Incidence of clinical improvement ([3]; P .43 vs control): 11 patients
- Incidence of clinical improvement ([3]; at least 2 points on 8-point scale): (92%)
- Incidence of clinical improvement ([3]; at least 2 points on 8-point scale, listed as lenzilumab): 92%
- Incidence of IMV and/or death ([3]; listed as lenzilumab): 8%
- cytokines and chemokines involved in the cytokine storm [3, 7]: significant reduction
- Days to resolution of fever ([3]; range 1-6, P .22): 2 days
- Days to clinical improvement (median) ([3]; range 1-14, control 11, P .006): 5 days
- Days to discharge from hospital (median) ([3]; range 3-19, control 11, P .008): 5 days
- Increase in mean absolute lymphocyte counts ([3]; untreated 0.03, P=0.04): 4.6e+08 L⁻¹
- lymphopenia post lenzilumab [4]: appeared to improve
- infusion-related or systemic side effects ([4]; 600 mg IV every 8 hours, 3 doses): No infusion-related or systemic side effects
- tolerability, frequency and severity of adverse events [5]: very well tolerated
- hemoglobin on day 6 in one patient ([6]; 10.3 on day 0, renal biopsy day 2, subcapsular hematoma): 7.9 g/dL
- median time to discharge post-lenzilumab ([6]; 11 discharged patients, range 3-19): 5 days
- patients with clinical improvement of at least 2 points on the 8-point ordinal scale ([6]; 11 of 12 patients): 92% and 91.7%
- hematological toxicity ([6]; 12 patients): not associated with any hematological toxicity
- adverse events attributable to lenzilumab [6, 8]: no treatment-emergent adverse events attributable to lenzilumab
- infusion reactions [6, 8]: no infusion reactions
- median time to a 2-point clinical improvement ([6]; 95% CI 2-7 days): 5 days
- time to resolution of fever in patients febrile at baseline ([6]; after lenzilumab administration): ≤ 48 h
- Lymphocytes 1st Lab, summary of patients 1-5 ([6]; average of 5 patients): 1.044
- Lymphocytes Last Value, summary of patients 1-5 ([6]; average of 5 patients): 1.422
- Lymphocytes Low, summary of patients 1-5 ([6]; average of 5 patients): 0.912
- Neutrophils 1st Lab, unlabelled summary line of patients 1-5 ([6]; average of 5 patients): 3.892
- Neutrophils High, summary of patients 1-5 ([6]; average of 5 patients): 6.008
- Neutrophils Last Value, summary of patients 1-5 ([6]; average of 5 patients): 3.98
- mean IL-6 on day 3 ([6]; baseline 26.8 pg/mL, p=0.035): 16.1 pg/mL
- mean CRP on day 3 ([6]; baseline 137.3 mg/L, p=0.040): 51.2 mg/L
- mean absolute lymphocyte count day 3 ([6]; baseline 0.89, p=0.107): 1.14e+09 L⁻¹
- mean absolute neutrophil count day 3 ([6]; baseline 5.1, p=0.27): 4.8e+09 L⁻¹
- mean hemoglobin day 3 ([6]; baseline 12.9, p=0.89): 11.4 g/dL
- mean temperature at day 3 ([6]; baseline 37.95, p=0.023): 36.97
- proportion of patients with SpO2/FiO2<315 at end of observation ([6]; baseline 67%, p=0.00015): 8%
- mean platelet count day 3 ([6]; baseline 217.7, p=0.001): 2.618e+11 L⁻¹
- deaths / mortality [6]: no reported mortality
- deaths / mortality ([6]; listed as lenzilumab): no deaths
- patients discharged on home oxygen ([6]; five patients): 42%
- ferritin after lenzilumab ([6]; individual patient narratives): 571 µg/L
- CRP after lenzilumab ([6]; individual patient narratives, dates in text): 91 mg/L and 46 mg/L
- D-dimer after lenzilumab [6, 9]: 1507 ng/mL and 1759 ng/mL and 1802 ng/mL
- ferritin after lenzilumab [6, 9]: 1143 µg/L
- IL-6 post Rx ([6]; individual patients, data to Apr. 13, 2020): 4.6 pg/mL
- ALT after lenzilumab [6]: 175
- AST after lenzilumab [6]: 96
- ALT after lenzilumab ([6]; listed as lenzilumab): 169 and 137
- AST after lenzilumab ([6]; listed as lenzilumab): 203 and 118
- patients whose SpO2/FiO2 improved to >315 on day 1 ([6]; of 8 patients <315 at baseline): four
- patients with 2-point improvement ([6]; of 12): 1 patients
- patients with ≥3-point improvement ([6]; of 12): 10 patients
- patients requiring invasive mechanical ventilation ([6]; one patient): 8.3%
- cytokines of the cytokine storm (G-CSF, MDC, GM-CSF, IL-1α, IFN-γ, IL-7, FLT-3L, IL-1rα, IL-6, IL-12p70) [6, 7]: significant reduction
- IL-6 after lenzilumab ([6]; patient 4, April 8): 95.4 pg/mL
- LDH after lenzilumab ([6]; patient 4, April 8): 388 U/L
- IL-6 after lenzilumab [6, 10]: 4.6
- ferritin after lenzilumab [6, 10]: 1223
- hemoglobin at last study observation, same patient ([6]; patient with subcapsular hematoma): 9.3 g/dL
- patients requiring mechanical invasive ventilation ([6]; patients 1-5): None
- time to clinical two-point improvement faster than comparators ([6]; vs Remdesivir, Lopinavir-Ritonavir (and Tocilizumab)): more than 50%
